Laboratory results reported in the supplement of paper PMC9170038.

System: MS2 coat protein
Assay: apparent KD of MS2 coat protein; designed switch direction (-1 OFF switch, 1 ON switch): 1; higher = weaker reporter binding
Procedure, shortened: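 The buffer was Tris-HCl pH 7.5 with KCl, MgCl2, BSA, DTT, tRNA and Tween-20. In it, SNAP-549-labelled MS2 coat protein was titrated in doubling steps from 0.7 or 1.5 nM to 3 µM over chip-bound RNA switches transcribed by stalled E. coli RNA polymerase on Illumina chips. Apparent KD is the per-design median over clusters of curve fits to normalised fluorescence.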

[1] = Eterna round: R95, input ligand: FMN 200 uM
[2] = Eterna round: R95, input ligand: microRNA oligo, concentration not stated
[3] = Eterna round: R95, input ligand: none
[4] = input ligand: microRNA oligo, concentration not stated

Sequence	apparent KD of MS2 coat protein [1] [nM]	apparent KD of MS2 coat protein [2] [nM]	apparent KD of MS2 coat protein [3] [nM]	apparent KD of MS2 coat protein (input ligand: FMN 200 uM) [nM]	apparent KD of MS2 coat protein [4] [nM]	apparent KD of MS2 coat protein (input ligand: none) [nM]
AAAGCAAUGGUACAGGAUAUGUACGGUCGUACAUGAGGAUCACCCAUGUCGCUGGAAAGGUAGAUACAGAAGGGUGCCCAUGCGU [Riintile] (puzzle: Same State 2)	34.4	161	210	–	–	–
UUAAUAAAUCAAGGAUAUCACGUCGUUUAGACGUGAGAAGGUGAUCAUAACAUGAGGAUCACCCAUGUAUUACAUGAAUAUUAA [SSNG1/1-B3] (Eterna round: R96, puzzle: Same State NG 1)	–	–	–	1180	778	1570
AUUAUUUAUGCAGGAUAUGAUUAACAUGAGGAUCACCCAUGUGGUGUUGUGAGUAAGGAGAGUGAUCAGAAGGGCAUUUUUUUA [JMF's solution 56] (Eterna round: R96, puzzle: Same State NG 2)	–	–	–	476	410	302
UCUUGGUUUUUGCUCGUUUUUUGUGUUGAACAUGAGGAUCACCCAUGUAUUGUACGGUCCAAUUUAAUAGUGGUCCG [JMF 24] (puzzle: Sensor for hsa-mir-208a)	25.5	15.3	28	–	–	–
CGUCCGGCCUGUGCUGGCCGGUUGCUUGUACAUGAGGAUCACCCAUGUUCUUGUGCAGGCUUUUUGCUCGUCUUGUG [salish99_mir208a_018] (puzzle: Sensor for hsa-mir-208a)	212	25	265	–	–	–
AGAUCAUGACGAGGAUAUGGAACAUGAGGAUCACCCAUGUAUGUUCCAUAACGCGAAUGACGAAUCCAGAAGGCGUCGUGGUCA [JL SSNG2 1.10] (Eterna round: R96, puzzle: Same State NG 2)	–	–	–	15.6	112	168
UAUAAACAUGAGGAUCACCCAUGUAAUAAUAUGGGAGGAUAUCAGAAUGUAUUUAUGUAAUGAGAAGGCCUAAUAU [Mat - Same State 1 - Mod of Eli - D69] (puzzle: Same State 1)	50.9	122	372	–	–	–
UUGUUUUGUAAUUAACAUGAGGAUCACCCAUGUCUUGGCUCAGAGGAUAUACAUGUUUGAUUGUAGUAGAAGGCUGAAUGUUGU [JR_SSNG3_Sub094] (Eterna round: R96, puzzle: Same State NG 3)	–	–	–	95.2	96	131
CCGGCCACACAACAAGGCCAACAUGAGGAUCACCCAUGUACACAGGAUAUCGGCAGCCAAGGCUCCGAGAAGGGUGGUUCAAUU [Beage] (Eterna round: R96, puzzle: Same State NG 3)	–	–	–	438	145	234
CCGGUACAUGAGGAUCACCCAUGUUGCGGCAGGACAGGAUAUGGGCGAGAAUAUGUAGGCCCAGAAGGGUCAUCAC [Qure] (puzzle: Same State 1)	24.1	42.1	38.9	–	–	–
GGUGAGAGAGUCAAGGAUAUGAAAGGAGAGACAUGAGGAUCACCCAUGUAAGAGAGAGAGGAGAGUUAGAAGGUGAAGAGAGUGG [Altered State 2-24 - Jieux - Same State 2] (puzzle: Same State 2)	42.7	39.5	64.7	–	–	–
GCUAGUAUUAUUGUCAACAUGAGGAUCACCCAUGUAUGUUGGCAGGAUAUCGUUUGCUUUGCAAACGAGAAGGGCUAAACUAGC [JL SSNG3 1.04] (Eterna round: R96, puzzle: Same State NG 3)	–	–	–	61.2	145	231
UUAGUCAUGUAAGGAUAUGCAGCCGAAACGGCUGCAGAAGGUACUAUAAUUACAUGAGGAUCACCCAUGUUAUAAAAUUUAUAU [Mat - Same State NG 1 - JL mod - D62] (Eterna round: R96, puzzle: Same State NG 1)	–	–	–	23.4	28.7	41.2
AAGAAAUCCGCAGGAUAUCCUAAGCCGGGCUUAGGAGAAGGGUGGCCACAUGAGGAUCACCCAUGUAAAAGCUGAAUCACAGCC [Aerququ] (Eterna round: R96, puzzle: Same State NG 1)	–	–	–	237	388	523
CUCCGGAAGCGAGGAUAUGCAGAGGAUCACCCUGCAGAAGGCGCCCUUGCGAGGAUAUGCAGAGGAUCACCCUGCAGAAGGCGC [pwkr ssNG DX.30] (Eterna round: R96, puzzle: Same State NG 1)	–	–	–	16.2	15.4	28
GUAGCAUGCAGGCAGGAUAUUCAUAUUAAAACAUGAGGAUCACCCAUGUAGGCCAAAAGGCCUUGGGAGAAGGGCCACAUGCUAC [Xeonanis - 19] (Eterna round: R96, puzzle: Same State 2)	–	–	–	35.7	337	424

Sequence	apparent KD of MS2 coat protein [1] [nM]	apparent KD of MS2 coat protein [2] [nM]	apparent KD of MS2 coat protein [3] [nM]	apparent KD of MS2 coat protein (input ligand: FMN 200 uM) [nM]	apparent KD of MS2 coat protein [4] [nM]	apparent KD of MS2 coat protein (input ligand: none) [nM]
AAGCCUAAACGGCGAAAACGACAUGAGGAUCACCCAUGUACACAGGAUAUCAGCCUGCUACAGGCUGAGAAGGGUGAACCUAAA [Maisveon] (Eterna round: R96, puzzle: Same State NG 3)	–	–	–	797	63.8	113
GUACAUAUCGUAGGAUAUCACGUCGAAUAGACGUGAGAAGGACGGUCCCACAUGAAUAUUAAUACAUGAGGAUCACCCAUGUAC [MOD SSNG 1/18-A1 by Brourd] (Eterna round: R96, puzzle: Same State NG 1)	–	–	–	92.5	41.8	43
AUAAAACAUGAGGAUCACCCAUGUCAACAAAGUCGAGGAUAUGGGCAAAUAAAAUAAGAUCCAGAAGGCGAAUAAU [salish99_ss1_r3_016] (puzzle: Same State 1)	97.3	36.3	92.7	–	–	–
GUACAGAUUAUAGGAUAUCACGUCGAUUAGACGUGAGAAGGAUAAUCCCACAUGAAUAUUAAUACAUGAGGAUCACCCAUGUAC [SSNG1/18-B2] (Eterna round: R96, puzzle: Same State NG 1)	–	–	–	24.2	22	30.5
AAUAUACAUGAGGAUCACCCAUGUUAGUAAAUGACAGGAUAUGGAAUAAAUAAAUAAUAACCAGAAGGGUCUAAUA [JMF's solution 2] (puzzle: Same State 1)	16	24.9	28.5	–	–	–
AGCUAUUAAUCAGGAUAUGGUCACAUGAGGAUCACCCAUGUAACGAUGAUAUAAUGUGGUCAAGACUAGAAGGGAUUGCUAACA [SameState NG2 #66] (Eterna round: R96, puzzle: Same State NG 2)	–	–	–	169	221	191
AACAUACAUGAGGAUCACCCAUGUUCCGGCAGGACAGGAUAUACAUCGAAAGUGUUAUAAGUAGAAGGGUCAUAAA [JR_SS001_Sub012] (Eterna round: R96, puzzle: Same State 1)	–	–	–	63.4	56.6	79.8
ACAUGAGAGUGAGGAUAUGGUGUACCUACAUGUGACAUGAGGAUCACCCAUGUGGUAAGUAUGACUCAGAAGGCACAGAUAUGU [Equivalance 77 - Jieux - Same State NG 2] (Eterna round: R96, puzzle: Same State NG 2)	–	–	–	16.2	59.4	103
GGAGCCAAGGCAGGAUAUUCAUAUUAAUAACACAUGAGGAUCACCCAUGUGGCCAGAAGGCCAAGGGAGAAGGGCCAUGGCUCG [Xeonanis - 13 mod11] (Eterna round: R96, puzzle: Same State NG 2)	–	–	–	22.1	65.4	159
GCUGCAAGGGCAGGAUAUGGGUUCAGAGCGGAAGUGCGCUUUGAUACAUGAGGAUCACCCAUGUCCCAGAAGGGCCCAAACGGC [Beanti] (Eterna round: R96, puzzle: Same State NG 2)	–	–	–	17.3	99.3	123
GGAGCCGAUACUGAGGAUAUUCAUAUUAAAACAUGAGGAUCACCCAUGUAGGCCAGAAGGCCUUGGGAGAAGGCAGAUCGGCUCC [Biseusra - 4] (puzzle: Same State 2)	19.5	301	450	–	–	–
GCCAUCGUGUGAGGAUAUGGCACCGAAACGGUGCCAGAAGGCAUGUCAAUUGACAUGAGGAUCACCCAUGUAUUAGCGAUGGCA [Mat - Same State NG 1 - JL mod - D86] (Eterna round: R96, puzzle: Same State NG 1)	–	–	–	181	994	1360
GAAAAGGCAACGCAGGAUAUGAAAGGUGAAACAUGAGGAUCACCCAUGUGCUACCUUCCGAUAAAUCAGAAGGGCGACGCCUAAA [Usbemaus] (puzzle: Same State 2)	9.33	8.96	11.1	–	–	–
AAAAUACAUGAGGAUCACCCAUGUGAAAAUAUGGGAGGAUAUACCGAAAAAAAAAAAAAGGUAGAAGGCCCAAAAA [SS! 1 MT 5] (Eterna round: R96, puzzle: Same State 1)	–	–	–	39.5	31	34.6
ACAAGCUUUUUUGUAGUGAAAGGUGGGAUACAUGAGGAUCACCCAUGUAUUGUUGUUAAUAUUGGACCUCGUCUUAU [JR_SHM208A_Sub084] (puzzle: Sensor for hsa-mir-208a)	22.1	14.2	22.5	–	–	–
